Key:
[1] = molecular target: T1, polymerase module (Cft1-Pap1-Pfs2-Fip1-Yth1);Mpe1 (Saccharomyces cerevisiae;Saccharomyces …, UniProt Q06632;P29468;P42841;P45976;Q06102;P35728 1-1357;1-568;1-465;1-327;1-208;1-441, |); test: size exclusion chromatography; 5 uM polymerase module, 15 uM Mpe1, 10 uM RNA; comigration, later elution; EMSA: SEC 50 buffer (composition not given in material), 50 nM FAM-RNA, 10% native PAGE 1X TBE, room temperature; SEC: Superose 6 Increase 3.2/300 in SEC 50; conditions: protein: recombinant;recombinant; tags: untagged (from polymerase module-Mpe1 purification); Pfs2-SII in some preparations;C-terminal SII; copies: 1;1;1;1;1;1; label: 5' 6-FAM; single strand
[2] = molecular target: polymerase module (Cft1-Pap1-Pfs2-Fip1-Yth1);Mpe1;yPIM peptide of Cft2 (Saccharomyces cerevisiae;Saccharomyces …, UniProt Q06632;P29468;P42841;P45976;Q06102;P35728;Q12102 …, ||); test: cryo-EM; Zn2+; 2.61 A; Cft2 yPIM peptide; EMSA: SEC 50 buffer (composition not given in material), 50 nM FAM-RNA, 10% native PAGE 1X TBE, room temperature; SEC: Superose 6 Increase 3.2/300 in SEC 50; conditions: tags: untagged (from polymerase module-Mpe1 purification); Pfs2-SII in some preparations;C-terminal SII;; copies: 1;1;2;1;1;1;1; single strand; 4 nt modelled
[3] = molecular target: T1, polymerase module …; test: cryo-EM; Zn2+; 2.66 A; EMSA: SEC 50 buffer (composition not given in material), 50 nM FAM-RNA, 10% native PAGE 1X TBE, room temperature; SEC: Superose 6 Increase 3.2/300 in SEC 50; conditions: protein: recombinant;recombinant; tags: untagged (from polymerase module-Mpe1 purification); Pfs2-SII in some preparations;C-terminal SII; copies: 1;1;1;1;1;1; single strand; 4 nt modelled

Binder	binding result [1]	binding result [2]	binding result [3]
UUUAUAGUUAUGUUAGUAUUAAGAACGUUAUUUAUAUUUCAA (ssRNA) [precleaved CYC1 (pcCYC1), 42 nt]	binds	–	–
UUUAUAGUUAUGUUAGUAUUAAGAACGUUAUUUAUAUUUCAA (ssRNA) [precleaved CYC1 used for cryo-EM (IDT FAM or T7 version not stated)]	–	binds	binds

Reference: article PMC9380774, “Mpe1 senses the binding of pre-mRNA and controls 3′ end processing by CPF” (Molecular Cell, 2022)
